Results published in the RNAGym collection of RNA variant scans (doi:10.7554/elife.80360).

B1: CPEB3 Ribozyme (parent)
chain: GGGGGCCACAGCAGAAGCGUUCACGUCGCGGCCCCUGUCAGAUUCUGGUGAAUCUGCGAAUUCUGCUGU

Variants of: B1
Assay: self-cleavage, relative activity (ratio to wild type); higher = more cleavage; co-transcriptional

Variant	self-cleavage
G30A A42G	0.817
G30A A51G	0.744
G30A A51U	0.752
G30A A52C	0.739
G30A A52U	0.806
G30A A59U	0.361
G30A A60C	0.261
G30A C32A	0.245
G30A C32G	0.261
G30A C32U	0.714
G30A C33A	0.203
G30A C33U	0.691
G30A C34U	0.741
G30A C35A	0.207
G30A C39G	0.596
G30A C39U	0.598
G30A C45G	0.73
G30A C45U	0.884
G30A C54A	0.431
G30A C54U	0.876
G30A C57U	0.272
G30A C63A	0.413
G30A C66G	0.61
G30A C66U	0.861

Variant	self-cleavage
G30A G31C	0.254
G30A G41A	0.382
G30A G41C	0.215
G30A G47C	0.93
G30A G48C	0.901
G30A G48U	0.868
G30A G50A	0.927
G30A G50C	0.774
G30A G56A	0.713
G30A G56C	0.413
G30A G56U	0.693
G30A G65A	0.627
G30A G65C	0.353
G30A G68A	0.988
G30A U36A	0.196
G30A U38C	0.531
G30A U38G	0.274
G30A U43A	0.579
G30A U43C	0.704
G30A U43G	0.464
G30A U44A	0.658
G30A U44C	0.697
G30A U46A	0.723
G30A U46C	0.866

Variant	self-cleavage
G30A U49C	0.909
G30A U49G	0.674
G30A U53A	0.541
G30A U53C	0.604
G30A U53G	0.356
G30A U55C	0.519
G30A U55G	0.453
G30A U61A	0.418
G30A U62C	0.497
G30A U64C	0.795
G30A U67A	0.901
G30A U67G	0.948
G30A U69A	1
G30A U69C	1.04
G30C	0.682
G30C A40C	0.197
G30C A40G	0.462
G30C A42C	0.441
G30C A42G	0.604
G30C A51C	0.614
G30C A51G	0.628
G30C A52C	0.506
G30C A52G	0.724
G30C A52U	0.556

Variant	self-cleavage
G30C A59C	0.306
G30C A59G	0.708
G30C A59U	0.295
G30C A60C	0.285
G30C A60G	0.411
G30C A60U	0.242
G30C C32A	0.194
G30C C33U	0.576
G30C C34A	0.243
G30C C34U	0.6
G30C C35G	0.15
G30C C39A	0.218
G30C C39U	0.396
G30C C45A	0.51
G30C C45U	0.603
G30C C54G	0.296
G30C C54U	0.673
G30C C57G	0.223
G30C C63G	0.329
G30C C63U	0.645
G30C C66A	0.397
G30C C66G	0.396
G30C C66U	0.666
G30C G31A	0.252

Variant	self-cleavage
G30C G31C	0.136
G30C G41A	0.298
G30C G47A	0.617
G30C G47C	0.696
G30C G47U	0.71
G30C G48A	0.694
G30C G48C	0.642
G30C G56A	0.464
G30C G58A	0.359
G30C G58C	0.494
G30C G58U	0.579
G30C G65C	0.431
G30C G68A	0.899
G30C G68C	0.905
G30C G68U	0.938
G30C U36A	0.192
G30C U36G	0.188
G30C U38A	0.314
G30C U38C	0.379
G30C U38G	0.204
G30C U43C	0.587
G30C U43G	0.369
G30C U46G	0.69
G30C U49A	0.686

Variant	self-cleavage
G30C U49C	0.721
G30C U49G	0.564
G30C U53C	0.44
G30C U53G	0.46
G30C U55A	0.466
G30C U55C	0.388
G30C U55G	0.323
G30C U61G	0.304
G30C U62A	0.259
G30C U62G	0.343
G30C U67A	0.869
G30C U69A	0.88
G30C U69C	0.995
G30C U69G	0.96
G30U	0.411
G30U A40G	0.341
G30U A42C	0.282
G30U A42U	0.247
G30U A51C	0.306
G30U A51G	0.4
G30U A51U	0.345
G30U A52C	0.395
G30U A52G	0.287
G30U A59C	0.172

Variant	self-cleavage
G30U A59G	0.309
G30U A59U	0.222
G30U A60C	0.173
G30U A60U	0.213
G30U C32A	0.175
G30U C33A	0.233
G30U C33G	0.192
G30U C33U	0.295
G30U C34G	0.193
G30U C34U	0.323
G30U C35A	0.191
G30U C35G	0.213
G30U C39A	0.273
G30U C39G	0.29
G30U C39U	0.252
G30U C45G	0.354
G30U C54A	0.248
G30U C54G	0.248
G30U C54U	0.339
G30U C57A	0.235
G30U C57U	0.207
G30U C63A	0.181
G30U C63G	0.261
